Four molecules from patent US20230114801A1 (SYSTIMMUNE, published 2023) can be followed below.

In assay [1] the target is T1, human EGFR (human, UniProt P00533 25-645, limits assumed).
T1 construct: Soluble antigen in Octet; construct not described
Description: BLI (Octet), binder on AHC sensor, 100 nM human antigen, 1:1 fit. For orientation: Biolayer interferometry detects binding as a change in optical thickness at a sensor tip.

The next assay deals with T2, human HER3 (human, UniProt P21860 20-643).
T2 construct: Soluble antigen in Octet; bought; also called human HER3 (Acro ER3-H5223)
The description is as above.

For assay [2], the target named is T3, human CD3 (human, UniProt P07766 23-126; P04234 22-105).
T3 construct: also called His-tagged human CD3; human CD3 (Acro CDD-H52W1)
The description is as above.

Assay [3] concerns the target T3, human CD3. Description: BLI (Octet), binder on AHC sensor, 100 nM human CD3, 1:1 fit.
Assay [4] addresses T1, human EGFR. Description: BLI (Octet), binder on AHC sensor, 200 nM human EGFR, 1:1 fit.

B1: SI-75X18 (other)
chain 1: QVQLQESGGRLVQPGEPLSLTCKTSGIDLSSNAIGWVRQAPGKGLEWIGVIFGSGNTYYASWAKGRFTISRSTSTVYLKMNSLRSEDTAIYYCARGGYSSDIWGQGTLVTVSSASTKGPSVFPLAPSSKSTSGGTAALGCLVKDYFPEPVTVSWNSGALTSGVHTFPAVLQSSGLYSLSSVVTVPSSSLGTQTYICNVNHKPSNTKVDKRVEPKSCDKTHTCPPCPAPEAAGGPSVFLFPPKPKDTLMISRTPEVTCVVVDVSHEDPEVKFNWYVDGVEVHNAKTKPREEQYNSTYRVVSVLTVLHQDWLNGKEYKCAVSNKALPAPIEKTISKAKGQPREPQVYTLPPSRDELTKNQVSLSCAVKGFYPSDIAVEWESNGQPENNYKTTPPVLDSDGSFFLVSKLTVDKSRWQQGNVFSCSVMHEALHNHYTQKSLSLSPGGGGGSGGGGSQVQLQQSGPGLVKPSETLSITCTVSGFSLTNYGVHWIRQAPGKGLEWLGVIWSGGNTDYNTPFTSRFTITKDNSKNQVYFKLRSVRADDTAIYYCARALTYYDYEFAYWGQGTLVTVSSGGGGSGGGGSGGGGSGGGGSEIVLTQSPSTLSVSPGERATFSCRASQSIGTNIHWYQQKPGKPPRLLIKYASESISGIPDRFSGSGSGTEFTLTISSVQSEDFAVYYCQQNNNWPTTFGPGTKLTVL
chain 2: DPQLTQSPSSLSATVGQRVTINCQSSQSVAKNNNLAWFQQKPGKPPKLLIYSASTLAAGVPSRFSGSGSGTQFTLTITRVQSEDFATYYCSARDSGNIQSFGGGTRVEIKRTVAAPSVFIFPPSDEQLKSGTASVVCLLNNFYPREAKVQWKVDNALQSGNSQESVTEQDSKDSTYSLSSTLTLSKADYEKHKVYACEVTHQGLSSPVTKSFNRGECGGDKTHTCPPCPAPEAAGGPSVFLFPPKPKDTLMISRTPEVTCVVVDVSHEDPEVKFNWYVDGVEVHNAKTKPREEQYNSTYRVVSVLTVLHQDWLNGKEYKCAVSNKALPAPIEKTISKAKGQPREPQVYTLPPSRDELTKNQVSLWCLVKGFYPSDIAVEWESNGQPENNYKTTPPVLDSDGSFFLYSKLTVDKSRWQQGNVFSCSVMHEALHNRFTQKSLSLSPGGGGGSGGGGSQVQLQESGGGLVKPGGSLSLSCAASGFTFSSYWMSWVRQAPGKGLEWVANINRDGSASYYVDSVKGRFTISRDDAKNSLYLQMNSLRAEDTAVYYCARDRGVGYFDLWGRGTLVTVSSGGGGSGGGGSGGGGSQSALTQPASVSGSPGQSITISCTGTSSDVGGYNFVSWYQQHPGKAPKLMIYDVSDRPSGVSDRFSGSKSGNTASLIISGLQADDEADYYCSSYGSSSTHVIFGGGTKVTVL
notes: tri-miniGNC; D3 αCD3* (Fab), D4 αEGFR, D5 αHER3
For B1, the values for the Kd with human EGFR [1], with human HER3 and in the assay with human CD3 [2] were 2.72 nM, 93.8 nM and 47.3 nM, respectively.

B2: SI-75X13 (bispecific antibody, human IgG1, kappa, L234A L235A)
chain 1: QVQLQESGGRLVQPGEPLSLTCKTSGIDLSSNAIGWVRQAPGKGLEWIGVIFGSGNTYYASWAKGRFTISRSTSTVYLKMNSLRSEDTAIYYCARGGYSSDIWGQGTLVTVSSASTKGPSVFPLAPSSKSTSGGTAALGCLVKDYFPEPVTVSWNSGALTSGVHTFPAVLQSSGLYSLSSVVTVPSSSLGTQTYICNVNHKPSNTKVDKRVEPKSCDKTHTCPPCPAPEAAGGPSVFLFPPKPKDTLMISRTPEVTCVVVDVSHEDPEVKFNWYVDGVEVHNAKTKPREEQYNSTYRVVSVLTVLHQDWLNGKEYKCAVSNKALPAPIEKTISKAKGQPREPQVYTLPPSRDELTKNQVSLSCAVKGFYPSDIAVEWESNGQPENNYKTTPPVLDSDGSFFLVSKLTVDKSRWQQGNVFSCSVMHEALHNHYTQKSLSLSPGGGGGSGGGGSEVQLQESGGGLVQAGDSLSLSCLVSGRSFNSYTMGWFRQAPGKEREFVAAILWSGPTTYYADSVKGRFTISRDNAKNTVYLQMNSLKPEDTAVYYCAAALGVLVLAPGNVYSYWGQGTQVTVSS
chain 2: DPQLTQSPSSLSATVGQRVTINCQSSQSVAKNNNLAWFQQKPGKPPKLLIYSASTLAAGVPSRFSGSGSGTQFTLTITRVQSEDFATYYCSARDSGNIQSFGGGTRVEIKRTVAAPSVFIFPPSDEQLKSGTASVVCLLNNFYPREAKVQWKVDNALQSGNSQESVTEQDSKDSTYSLSSTLTLSKADYEKHKVYACEVTHQGLSSPVTKSFNRGECGGDKTHTCPPCPAPEAAGGPSVFLFPPKPKDTLMISRTPEVTCVVVDVSHEDPEVKFNWYVDGVEVHNAKTKPREEQYNSTYRVVSVLTVLHQDWLNGKEYKCAVSNKALPAPIEKTISKAKGQPREPQVYTLPPSRDELTKNQVSLWCLVKGFYPSDIAVEWESNGQPENNYKTTPPVLDSDGSFFLYSKLTVDKSRWQQGNVFSCSVMHEALHNRFTQKSLSLSPG
notes: bi-miniGNC; D3 αCD3* (Fab), D4 αEGFR VHH
With B2, the results for the Kd in the assay with human CD3 [3] and with human EGFR [4] were 56 nM and 34 nM, respectively.

B3: SI-75X11 (bispecific antibody, human IgG1, kappa, L234A L235A)
chain 1: EVQLQESGGGLVQAGDSLSLSCLVSGRSFNSYTMGWFRQAPGKEREFVAAILWSGPTTYYADSVKGRFTISRDNAKNTVYLQMNSLKPEDTAVYYCAAALGVLVLAPGNVYSYWGQGTQVTVSSGGGGSGGGGSQVQLQESGGRLVQPGEPLSLTCKTSGIDLSSNAIGWVRQAPGKGLEWIGVIFGSGNTYYASWAKGRFTISRSTSTVYLKMNSLRSEDTAIYYCARGGYSSDIWGQGTLVTVSSASTKGPSVFPLAPSSKSTSGGTAALGCLVKDYFPEPVTVSWNSGALTSGVHTFPAVLQSSGLYSLSSVVTVPSSSLGTQTYICNVNHKPSNTKVDKRVEPKSCDKTHTCPPCPAPEAAGGPSVFLFPPKPKDTLMISRTPEVTCVVVDVSHEDPEVKFNWYVDGVEVHNAKTKPREEQYNSTYRVVSVLTVLHQDWLNGKEYKCAVSNKALPAPIEKTISKAKGQPREPQVYTLPPSRDELTKNQVSLSCAVKGFYPSDIAVEWESNGQPENNYKTTPPVLDSDGSFFLVSKLTVDKSRWQQGNVFSCSVMHEALHNHYTQKSLSLSPG
chain 2: DPQLTQSPSSLSATVGQRVTINCQSSQSVAKNNNLAWFQQKPGKPPKLLIYSASTLAAGVPSRFSGSGSGTQFTLTITRVQSEDFATYYCSARDSGNIQSFGGGTRVEIKRTVAAPSVFIFPPSDEQLKSGTASVVCLLNNFYPREAKVQWKVDNALQSGNSQESVTEQDSKDSTYSLSSTLTLSKADYEKHKVYACEVTHQGLSSPVTKSFNRGECGGDKTHTCPPCPAPEAAGGPSVFLFPPKPKDTLMISRTPEVTCVVVDVSHEDPEVKFNWYVDGVEVHNAKTKPREEQYNSTYRVVSVLTVLHQDWLNGKEYKCAVSNKALPAPIEKTISKAKGQPREPQVYTLPPSRDELTKNQVSLWCLVKGFYPSDIAVEWESNGQPENNYKTTPPVLDSDGSFFLYSKLTVDKSRWQQGNVFSCSVMHEALHNRFTQKSLSLSPG
notes: bi-miniGNC; D1 αEGFR VHH, D3 αCD3* (Fab)
As for B3, the Kd with human CD3 [3] amounted to 65.7 nM; in the assay with human EGFR [4] it was 21.6 nM.

B4: SI-75X16 (other)
chain 1: EIVLTQSPSTLSVSPGERATFSCRASQSIGTNIHWYQQKPGKPPRLLIKYASESISGIPDRFSGSGSGTEFTLTISSVQSEDFAVYYCQQNNNWPTTFGPGTKLTVLGGGGSGGGGSGGGGSGGGGSQVQLQQSGPGLVKPSETLSITCTVSGFSLTNYGVHWIRQAPGKGLEWLGVIWSGGNTDYNTPFTSRFTITKDNSKNQVYFKLRSVRADDTAIYYCARALTYYDYEFAYWGQGTLVTVSSGGGGSGGGGSQVQLQESGGRLVQPGEPLSLTCKTSGIDLSSNAIGWVRQAPGKGLEWIGVIFGSGNTYYASWAKGRFTISRSTSTVYLKMNSLRSEDTAIYYCARGGYSSDIWGQGTLVTVSSASTKGPSVFPLAPSSKSTSGGTAALGCLVKDYFPEPVTVSWNSGALTSGVHTFPAVLQSSGLYSLSSVVTVPSSSLGTQTYICNVNHKPSNTKVDKRVEPKSCDKTHTCPPCPAPEAAGGPSVFLFPPKPKDTLMISRTPEVTCVVVDVSHEDPEVKFNWYVDGVEVHNAKTKPREEQYNSTYRVVSVLTVLHQDWLNGKEYKCAVSNKALPAPIEKTISKAKGQPREPQVYTLPPSRDELTKNQVSLSCAVKGFYPSDIAVEWESNGQPENNYKTTPPVLDSDGSFFLVSKLTVDKSRWQQGNVFSCSVMHEALHNHYTQKSLSLSPG
chain 2: QSALTQPASVSGSPGQSITISCTGTSSDVGGYNFVSWYQQHPGKAPKLMIYDVSDRPSGVSDRFSGSKSGNTASLIISGLQADDEADYYCSSYGSSSTHVIFGGGTKVTVLGGGGSGGGGSGGGGSGGGGSQVQLQESGGGLVKPGGSLSLSCAASGFTFSSYWMSWVRQAPGKGLEWVANINRDGSASYYVDSVKGRFTISRDDAKNSLYLQMNSLRAEDTAVYYCARDRGVGYFDLWGRGTLVTVSSGGGGSGGGGSDPQLTQSPSSLSATVGQRVTINCQSSQSVAKNNNLAWFQQKPGKPPKLLIYSASTLAAGVPSRFSGSGSGTQFTLTITRVQSEDFATYYCSARDSGNIQSFGGGTRVEIKRTVAAPSVFIFPPSDEQLKSGTASVVCLLNNFYPREAKVQWKVDNALQSGNSQESVTEQDSKDSTYSLSSTLTLSKADYEKHKVYACEVTHQGLSSPVTKSFNRGECGGDKTHTCPPCPAPEAAGGPSVFLFPPKPKDTLMISRTPEVTCVVVDVSHEDPEVKFNWYVDGVEVHNAKTKPREEQYNSTYRVVSVLTVLHQDWLNGKEYKCAVSNKALPAPIEKTISKAKGQPREPQVYTLPPSRDELTKNQVSLWCLVKGFYPSDIAVEWESNGQPENNYKTTPPVLDSDGSFFLYSKLTVDKSRWQQGNVFSCSVMHEALHNRFTQKSLSLSPG
notes: tri-miniGNC; D1 αEGFR, D2 αHER3, D3 αCD3* (Fab)
Take B4: the Kd in the assay with human EGFR [1] amounted to 6.8 nM; with human HER3 it was 113 nM; with human CD3 [2], 33.4 nM.

As a reminder, the Kd is a measure of binding affinity in units of concentration. The low end stands for a tighter complex, the high end for a looser complex.
